{"source": "paper PMC8322138", "about": "“BRCA2 binding through a cryptic repeated motif to HSF2BP oligomers does not impact meiotic recombination” (Nature Communications, 2021)", "molecules": {"B1": {"name": "H3: HSF2BP fragment E122-V334, armadillo domain (protein)", "chain": "EMGAAACTLLWGVSSSEEVVKAILGGDKALKFFSITGQTMESFVKSLDGDVQELDSDESQFVFALAGIVTNVAAIACGREFLVNSSRVLLDTILQLLGDLKPGQCTKLKVLMLMSLYNVSINLKGLKYISESPGFIPLLWWLLSDPDAEVCLHVLRLVQSVVLEPEVFSKSASEFRSSLPLQRILAMSKSRNPRLQTAAQELLEDLRTLEHNV", "modifications": "left off: His6, end not stated, cleaved", "notes": "HSF2BP fragment E122-V334, armadillo domain"}, "B2": {"name": "S2309N: Flag-BRCA2-F9 variant (protein)", "chain": "GKRRGEPLILVGEPSIKRNLLNEFDRIIENQEKSLKASKNTPDGTIKDRRLFMHHVSLEPITCVPFRT", "modifications": "left off: Flag, end not stated, kept", "notes": "Flag-BRCA2-F9 variant"}, "B3": {"name": "P2329L: Flag-BRCA2-F9 variant (protein)", "chain": "B2 chain with N40S, P60L", "modifications": "left off: Flag, end not stated, kept", "notes": "Flag-BRCA2-F9 variant"}, "B4": {"name": "L2304K: Flag-BRCA2-F9 variant (protein)", "chain": "B2 chain with L35K, N40S", "modifications": "left off: Flag, end not stated, kept", "notes": "Flag-BRCA2-F9 variant"}, "B5": {"name": "R2318Q: Flag-BRCA2-F9 variant (protein)", "chain": "B2 chain with N40S, R49Q", "modifications": "left off: Flag, end not stated, kept", "notes": "Flag-BRCA2-F9 variant"}, "B6": {"name": "Human BRCA2 fragment F0 (S2213-Q2342, C2332T) (domain or fragment, UniProt P51587 2213-2342, looked up)", "chain": "STYSKDSENYFETEAVEIAKAFMEDDELTDSKLPSHATHSLFTCPENEEMVLSNSRIGKRRGEPLILVGEPSIKRNLLNEFDRIIENQEKSLKASKSTPDGTIKDRRLFMHHVSLEPITTVPFRTTKERQ", "notes": "BRCA2, human, residues 2213-2342 with C2332T; pET-22b fusion: BRCA2 fragment, TEV site, GB1, 6xHis; residues of the TEV site may remain at the C-terminus after cleavage (surmise); 15N- or 15N/13C-labelled for NMR; also called BRCA2-F0; source: E. coli BL21 DE3 Star, purified (HisTrap, TEV cleavage, SEC); not shown: GB1, C-terminal, cleaved; His6, C-terminal, cleaved"}}, "key": {"[1]": {"system": "GFP-HSF2BP", "assay": "Co-immunoprecipitation of Flag-BRCA2 variants/fragments with GFP-HSF2BP WT", "type": "cell-based, human", "conditions": "transient HEK293T, anti-GFP beads, immunoblot", "text": "(§1) Expression constructs for producing point mutation and truncation variants of HS2BP and BRCA2 in human cells were engineered as described before[16] in the PiggyBac vectors by Gibson assembly. For transient expression into HEK293T cells plasmid DNA was transfected using calcium precipitation method or PEI transfection. For stable integration into HeLa cells, PiggyBac expression vectors were co-lipofected together with PiggyBac transposase plasmid (hyPBase[45]) with Lipofectamine 3000 (Thermo Fisher).\n(§2) Cells were washed twice in ice-cold PBS and lysed in situ in NETT buffer (100 mM NaCl, 50 mM Tris pH 7.5, 5 mM EDTA pH 8.0, 0.5% Triton-X100) supplemented immediately before use with protease inhibitor cocktail (Roche) and 0.4 mg/ml Pefabloc (Roche) (NETT++); 450 µl NETT++ buffer was used per 145 mm dish ES cells, 1 ml for HeLa and HEK293T. After 5–10 min, cells were scraped off and collected in 1.5 ml microcentrifuge tubes; lysis was continued for additional 20–30 min on ice, then mixtures were centrifuged (15 min, 4 °C, 14,000 × g) and the supernatant (input) was added to washed anti-GFP beads (Chromotek). Beads and lysates were incubated 2–4 h at 4 °C while rotating, washed three times in NETT++ buffer and bound proteins were eluted by boiling in 2x Sample buffer. Immunoblotting was performed following standard procedures with the following antibodies: anti-GFP mAb (Roche, #11814460001), anti-GFP pAb (Abcam #ab290 and Invitrogen #A11122), anti-RAD51[46], anti-BRCA2 mAb Ab1 OP-95 (Millipore #OP95), anti-BRCA2 (Abcam #27976), anti-Flag (M2 antibody, Sigma, F3165 and F1804). For quantitative immunoblotting fluorescently labeled secondary antibodies were used: anti-mouse CF680 (Sigma #SAB460199), anti-rabbit CF770 (Sigma #SAB460215); membranes were scanned using Odyssey CLx imaging system (LI-COR)."}, "[2]": {"system": "BRCA2 (Flag-F9)", "assay": "Co-immunoprecipitation of GFP-HSF2BP variants with Flag-BRCA2 F9", "type": "cell-based, human", "conditions": "transient HEK293T / stable HeLa, anti-GFP beads, immunoblot", "text": "as §1, §2"}, "[3]": {"molecular_target": "T1, ARM domain of HSF2BP (Homo sapiens, UniProt O75031)", "T1 construct": "The armadillo domain of HSF2BP, from aa 122 to aa 334; 6xHis-TEV (N, cleaved yes); made in house; host or cells: E. coli BL21 DE3 Rosetta2", "T1 sequence (O75031 122-334)": "B1 chain", "assay": "SEC-MALS of ARM free or bound to F15X", "type": "physicochemical", "protocol": "Size-exclusion chromatography (SEC) coupled to MALS was used in order to measure the molecular masses of the complexes in solution. Therefore, HSF2BP and ARM proteins were loaded in the presence and absence of the BRCA2 fragment F15X on a Superdex 200 10/300 GL (GE Healthcare) using a HPLC Shimadzu system coupled to MALS/QELS/UV/RI (Wyatt Technology). The chromatography buffer was 25 mM Tris-HCl buffer, pH 7.5, 250 mM NaCl, 5 mM β-mercaptoethanol. The proteins were injected at 0.8–1 mg/ml in 100 μl. Data were analyzed using the ASTRA software; a calibration was performed with BSA as a standard."}, "[4]": {"molecular_target": "T2, Human full-length HSF2BP WT (human, UniProt O75031 1-334)", "T2 construct": "HSF2BP, human, full length, wild type; pETM11 (6xHis-TEV) vector; purified as in Brandsma et al., Cell Rep 2019; also called HSF2BP FL; HFS2BP; source: E. coli BL21 DE3 Rosetta2, purified (HisTrap, TEV cleavage, SEC)", "T2 sequence (looked up)": "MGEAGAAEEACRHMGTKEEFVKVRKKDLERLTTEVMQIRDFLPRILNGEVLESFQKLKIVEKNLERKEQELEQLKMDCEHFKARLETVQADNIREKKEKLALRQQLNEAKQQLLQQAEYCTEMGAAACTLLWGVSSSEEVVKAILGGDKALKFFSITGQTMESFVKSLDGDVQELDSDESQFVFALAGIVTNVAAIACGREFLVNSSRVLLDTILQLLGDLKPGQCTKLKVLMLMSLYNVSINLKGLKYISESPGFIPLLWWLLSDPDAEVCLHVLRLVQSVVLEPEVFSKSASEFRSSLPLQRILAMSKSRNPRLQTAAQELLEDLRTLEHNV", "assay": "ITC; HSF2BP or ARM in the cell at 10-20 uM, BRCA2 fragment in the syringe at 40-100 uM; 293 K; 25 mM Tris pH 7.5, 250 mM NaCl, 5 mM beta-mercaptoethanol; two replicates", "conditions": "both partners purified"}, "[5]": {"molecular_target": "T3, armadillo domain of HSF2BP, from aa 122 to aa 334 (ARM) (human, UniProt O75031 122-334)", "T3 construct": "Free ARM is a dimer (SEC-MALS); four ARM with two F15X in the complex; A selenomethionine-labelled form was used for the deposited crystal structure; also called HSF2BP ARM; H3 (recombinant); source: E. coli BL21 DE3 Rosetta2, purified (HisTrap, TEV cleavage, SEC)", "T3 sequence (looked up)": "B1 chain", "assay": "ITC; HSF2BP or ARM in the cell at 10-20 uM, BRCA2 fragment in the syringe at 40-100 uM; 293 K; 25 mM Tris pH 7.5, 250 mM NaCl, 5 mM beta-mercaptoethanol; two replicates", "conditions": "both partners purified"}, "[6]": {"molecular_target": "T4, Human full-length HSF2BP WT (human), O75031", "T4 chain": "T2 sequence (looked up)", "assay": "ITC; HSF2BP or ARM in the cell at 10-20 uM, BRCA2 fragment in the syringe at 40-100 uM; 293 K; 25 mM Tris pH 7.5, 250 mM NaCl, 5 mM beta-mercaptoethanol; two replicates"}}, "note": "Positions count from the first letter of the chain named. Names and notes keep the numbering of the source. Values joined by “and” are separate entries in the source; they are usually repeats but may differ in a detail not shown here. Identical values can stand only once. Ends that are not written are not given here."}
{"molecule": "F15: Flag-tagged BRCA2 fragment N2288-T2337 (NLLNEFDRIIENQEKSLKASKSTPDGTIKDRRLFMHHVSLEPITCVPFRT; also: Flag tag, end not given here)", "values": [{"measurement": "interaction with HSF2BP (co-precipitation)", "setting": "[1]", "result": "minimal interaction region"}]}
{"molecule": "B1", "values": [{"measurement": "binding to BRCA2 (co-precipitation)", "setting": "[2]", "result": "minimal interaction region"}, {"measurement": "oligomeric state of ARM", "setting": "[3]; SEC-MALS and SEC-SAXS", "result": "dimeric"}, {"measurement": "molecular weight of species in solution", "setting": "[3]; SEC-MALS, Superdex 200 10/300 GL, 25 mM Tris-HCl pH 7.5, 250 mM NaCl, 5 mM β-mercaptoethanol", "result": 48, "unit": "kDa"}]}
{"molecule": "B2", "values": [{"measurement": "interaction with HSF2BP (co-precipitation)", "setting": "[1]", "result": "either strongly decreased or abolished binding"}, {"measurement": "interaction with HSF2BP (co-precipitation)", "setting": "[1]; listed as S2309", "result": "did not interact"}]}
{"molecule": "B3", "values": [{"measurement": "interaction with HSF2BP (co-precipitation)", "setting": "[1]", "result": "either strongly decreased or abolished binding"}, {"measurement": "interaction with HSF2BP (co-precipitation)", "setting": "[1]; listed as P2329", "result": "did not interact"}]}
{"molecule": "B4", "values": [{"measurement": "interaction with HSF2BP (co-precipitation)", "setting": "[1]", "result": "either strongly decreased or abolished binding"}]}
{"molecule": "B5", "values": [{"measurement": "interaction with HSF2BP (co-precipitation)", "setting": "[1]", "result": "either strongly decreased or abolished binding"}, {"measurement": "interaction with HSF2BP (co-precipitation)", "setting": "[1]; listed as R2318", "result": "did not interact"}]}
{"molecule": "B6", "values": [{"measurement": "Kd", "setting": "[4]", "result": 1.3, "unit": "nM"}, {"measurement": "dH", "setting": "[4]", "result": "-11 kcal/mol and -10.9 kcal/mol"}, {"measurement": "stoichiometry N", "setting": "[4]", "result": "0.43 and 0.47"}, {"measurement": "Kd", "setting": "[5]", "result": "31 nM and 25 nM"}, {"measurement": "dH", "setting": "[5]", "result": "-8.3 kcal/mol and -11.9 kcal/mol"}, {"measurement": "stoichiometry N", "setting": "[5]", "result": "0.45 and 0.49"}]}
{"molecule": "DGTIKDRRLFMHHVSLEPITTVPFRTTKERQ (modifications not checked)", "note": "[BRCA2 peptide F15X∆12 (D2312-E2342)]", "values": [{"measurement": "Kd", "setting": "[6]", "result": "2100 nM and 1500 nM"}, {"measurement": "dH", "setting": "[6]", "result": "-1.8 kcal/mol and -1.7 kcal/mol"}, {"measurement": "stoichiometry N", "setting": "[6]", "result": "0.9 and 0.89"}]}
